Sequences and labels used below:
T1: OxyR (rOxyR) (Actinobacillus pleuropneumoniae 4074 …, UniProt A0ABM6X4Q0 1-297)
T1 sequence: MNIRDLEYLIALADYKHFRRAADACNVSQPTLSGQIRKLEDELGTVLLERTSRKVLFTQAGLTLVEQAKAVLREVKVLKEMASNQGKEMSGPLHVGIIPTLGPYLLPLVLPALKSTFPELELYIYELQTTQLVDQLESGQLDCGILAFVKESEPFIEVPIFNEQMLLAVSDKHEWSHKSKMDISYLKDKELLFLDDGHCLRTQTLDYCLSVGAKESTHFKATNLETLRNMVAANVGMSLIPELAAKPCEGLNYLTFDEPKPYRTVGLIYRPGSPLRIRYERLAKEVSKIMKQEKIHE

B1: oxyR promoter probe (oxyRp) (dsDNA)
DNA 1: GAACGTACCAGCCGTAAGGTATTATTTACCCAAGCCGGTT
DNA 2: AACCGGCTTGGGTAAATAATACCTTACGGCTGGTACGTTC
B2: apxIBD promoter probe (ApxIBDp) (dsDNA)
DNA 1: ATGATAAATAGCAATCCTATATATATTAGGTGTGTAGGAT
DNA 2: ATCCTACACACCTAATATATATAGGATTGCTATTTATCAT
B3: catalase promoter probe (05430p) (dsDNA)
DNA 1: ATAATAATATATCCATACACAAAACCTATTAACATTCCAA
DNA 2: TTGGAATGTTAATAGGTTTTGTGTATGGATATATTATTAT

The data set has as its target T1, OxyR (rOxyR). Kind of data set: EMSA; dose-dependent; abolished by excess unlabeled probe; Lightshift EMSA binding buffer (composition and pH not given), 0.5 ul poly[d(I-C)], 10 ul, 25 C 30 min; 5% native PAGE in 0.5x TBE. The conditions noted are these: protein: recombinant; tags: His (pET28a NdeI/XhoI, HisTrap purified); chain copies: 4; label: biotin 3'-end; blunt. For orientation: Mobility shift assays separate free from complexed probe on a gel.
As for B1, the binding result is recorded as “binds”.
For B2 the value was “binds”.
For B3 the value was “binds”.

These data come from paper PMC10806198, “Effects of OxyR regulator on oxidative stress, Apx toxin secretion and virulence of Actinobacillus pleuropneumoniae”.
